Test results taken from publication PMC6179184, “Interaction of the Warsaw breakage syndrome DNA helicase DDX11 with the replication fork-protection factor Timeless promotes sister chromatid cohesion” (PLoS Genetics, 2018).
Each block holds one binder with its values, some of them ahead of it.

Columns and labels:
[1] = target: T1, recombinant human Flag-Timeless (human, UniProt Q9UNS1 1-1208); assay: pull-down; mixtures of purified recombinant proteins (Timeless 0.8 ug or cohesin 1 ug, DDX11 0.5 ug, 200 uL) with anti-DDX11 antibody on Protein A beads; 25 mM Tris-HCl pH 7.5, 150 mM NaCl, 2 mM MgCl2, 1 mM DTT, 5% glycerol, 2 hr at 4 C; washes with 300 mM NaCl, 0.25% Triton X-100; immuno-blot; conditions: both partners purified
T1 construct: Timeless, human, component of the replication fork-protection complex; also called Flag-tagged Timeless; source: insect cells infected with a recombinant baculovirus (Sf9), purified
T1 sequence (looked up): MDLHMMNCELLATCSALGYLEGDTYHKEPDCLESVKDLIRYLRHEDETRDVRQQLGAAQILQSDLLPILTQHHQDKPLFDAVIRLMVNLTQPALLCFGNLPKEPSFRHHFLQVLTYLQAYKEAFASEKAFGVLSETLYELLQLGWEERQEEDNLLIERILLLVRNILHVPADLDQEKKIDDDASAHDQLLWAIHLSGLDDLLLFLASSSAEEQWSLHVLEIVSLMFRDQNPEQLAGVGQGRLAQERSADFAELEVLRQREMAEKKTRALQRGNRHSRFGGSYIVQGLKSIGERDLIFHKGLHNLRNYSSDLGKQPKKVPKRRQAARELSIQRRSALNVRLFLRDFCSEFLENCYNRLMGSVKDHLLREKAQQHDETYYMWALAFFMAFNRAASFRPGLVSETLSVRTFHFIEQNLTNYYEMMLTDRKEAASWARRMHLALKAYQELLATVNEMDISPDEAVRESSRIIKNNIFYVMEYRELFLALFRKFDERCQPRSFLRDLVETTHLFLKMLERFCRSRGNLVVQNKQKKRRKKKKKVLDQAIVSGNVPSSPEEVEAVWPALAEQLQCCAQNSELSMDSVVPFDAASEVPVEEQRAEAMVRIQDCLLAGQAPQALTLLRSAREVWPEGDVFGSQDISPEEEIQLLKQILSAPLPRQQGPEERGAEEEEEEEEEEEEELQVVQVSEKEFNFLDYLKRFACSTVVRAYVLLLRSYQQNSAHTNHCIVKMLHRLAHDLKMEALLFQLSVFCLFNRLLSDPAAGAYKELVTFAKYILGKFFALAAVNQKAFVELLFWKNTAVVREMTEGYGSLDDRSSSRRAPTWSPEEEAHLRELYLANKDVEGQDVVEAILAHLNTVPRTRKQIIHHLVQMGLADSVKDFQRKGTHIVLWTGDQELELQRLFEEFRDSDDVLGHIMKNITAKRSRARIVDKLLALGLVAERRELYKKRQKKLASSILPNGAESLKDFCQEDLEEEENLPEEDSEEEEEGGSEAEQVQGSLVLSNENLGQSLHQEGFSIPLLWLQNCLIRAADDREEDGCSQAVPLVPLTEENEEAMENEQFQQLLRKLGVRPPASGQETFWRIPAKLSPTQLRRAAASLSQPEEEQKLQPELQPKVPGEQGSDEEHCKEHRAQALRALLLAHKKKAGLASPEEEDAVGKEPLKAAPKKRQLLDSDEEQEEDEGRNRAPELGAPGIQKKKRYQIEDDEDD

[2] = target: T1, recombinant human Flag-Timeless; assay: peptide or protein array; PEPperCHIP microarrays of 15-residue DDX11 peptides on glass slides (tiling array, 13-residue overlap; full substitution scan of peptide # 32); Flag-Timeless at 50 ug/mL in PBS, 0.05% Tween 20, 1% BSA for 16 hr; detected with Cy3-labelled anti-Flag antibody; control array without Flag-Timeless; conditions: both partners purified

binding result [1]: binds
B1: DDX11-3xFlag wild type (enzyme, human, UniProt Q96FC9-2 1-906, looked up)
chain: MANETQKVGAIHFPFPFTPYSIQEDFMAELYRVLEAGKIGIFESPTGTGKSLSLICGALSWLRDFEQKKREEEARLLETGTGPLHDEKDESLCLSSSCEGAAGTPRPAGEPAWVTQFVQKKEERDLVDRLKAEQARRKQREERLQQLQHRVQLKYAAKRLRQEEEERENLLRLSREMLETGPEAERLEQLESGEEELVLAEYESDEEKKVASRVDEDEDDLEEEHITKIYYCSRTHSQLAQFVHEVKKSPFGKDVRLVSLGSRQNLCVNEDVKSLGSVQLINDRCVDMQRSRHEKKKGAEEEKPKRRRQEKQAACPFYNHEQMGLLRDEALAEVKDMEQLLALGKEARACPYYGSRLAIPAAQLVVLPYQMLLHAATRQAAGIRLQDQVVIIDEAHNLIDTITGMHSVEVSGSQLCQAHSQLLQYVERYGKRLKAKNLMYLKQILYLLEKFVAVLGGNIKQNPNTQSLSQTGTELKTINDFLFQSQIDNINLFKVQRYCEKSMISRKLFGFTERYGAVFSSREQPKLAGFQQFLQSLQPRTTEALAAPADESQASTLRPASPLMHIQGFLAALTTANQDGRVILSRQGSLSQSTLKFLLLNPAVHFAQVVKECRAVVIAGGTMQPVSDFRQQLLACAGVEAERVVEFSCGHVIPPDNILPLVICSGISNQPLEFTFQKRELPQMMDEVGRILCNLCGVVPGGVVCFFPSYEYLRQVHAHWEKGGLLGRLAARKKIFQEPKSAHQVEQVLLAYSRCIQACGQERGQVTGALLLSVVGGKMSEGINFSDNLGRCVVMVGMPFPNIRSAELQEKMAYLDQTLPRAPGQAPPGKALVENLCMKAVNQSIGRAIRHQKDFASVVLLDQRYARPPVLAKLPAWIRARVEVKATFGPAIAAVQKFHREKSASS
notes: DDX11 (ChlR1), human, full-length protein of 906 residues (1-906); also called Flag-tagged wild type (WT) DDX11; ChlR1; source: HEK 293T, transiently transfected (pcDNA 3.0); purified, and in whole cell extract; not shown: 3xFlag, C-terminal, kept

binding result [2]: binds
B2: DDX11 Peptide # 32 (peptide)
peptide: EQLESGEEELVLAEY
notes: 15-residue peptide of human DDX11 (906-residue protein), in Region T (65-225); its two C-terminal residues are Glu201 and Tyr202 of full-length DDX11; source: synthetic peptide, printed on a PEPperCHIP microarray (PEPperPRINT)
